Test results published in patent US20250304666A1 (ALCHEMAB THERAPEUTICS, published 2025).
Substitutions are numbered along the chain they refer to. One block for each binder: values may come before it.

Experiments:
Test in all cases: ELISA, non-reduced antigen
non-reduced CFHR3 = target: T1, non-reduced CFHR3
T1 construct: also called CFHR3 (NON-REDUCED)
T1 chain: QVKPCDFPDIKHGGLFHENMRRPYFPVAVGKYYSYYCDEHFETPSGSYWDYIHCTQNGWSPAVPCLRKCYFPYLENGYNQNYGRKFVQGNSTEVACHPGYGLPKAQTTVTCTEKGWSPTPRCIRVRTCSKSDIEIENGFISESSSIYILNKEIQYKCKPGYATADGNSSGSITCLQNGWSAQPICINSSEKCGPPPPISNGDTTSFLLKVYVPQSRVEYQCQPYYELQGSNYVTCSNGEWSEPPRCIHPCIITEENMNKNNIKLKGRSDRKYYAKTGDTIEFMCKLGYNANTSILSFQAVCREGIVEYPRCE

non-reduced CFHR5 = target: T2, non-reduced CFHR5
T2 construct: also called CFHR5 (NON-REDUCED)
T2 chain: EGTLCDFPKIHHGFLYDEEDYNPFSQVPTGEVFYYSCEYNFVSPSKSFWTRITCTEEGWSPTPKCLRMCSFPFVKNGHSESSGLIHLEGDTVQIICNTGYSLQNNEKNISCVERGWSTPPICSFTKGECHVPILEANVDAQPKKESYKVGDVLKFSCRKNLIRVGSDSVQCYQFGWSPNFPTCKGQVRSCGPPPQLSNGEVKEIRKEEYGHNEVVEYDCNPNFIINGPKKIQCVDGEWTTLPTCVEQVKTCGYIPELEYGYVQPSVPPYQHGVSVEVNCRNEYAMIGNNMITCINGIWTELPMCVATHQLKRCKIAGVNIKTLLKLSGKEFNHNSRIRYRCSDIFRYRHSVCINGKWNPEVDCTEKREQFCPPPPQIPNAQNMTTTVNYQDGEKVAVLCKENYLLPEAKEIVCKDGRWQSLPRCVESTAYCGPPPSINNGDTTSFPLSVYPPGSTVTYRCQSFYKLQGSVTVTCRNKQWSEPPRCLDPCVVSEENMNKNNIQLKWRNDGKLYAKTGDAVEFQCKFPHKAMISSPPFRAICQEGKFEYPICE

non-reduced CFHR2 = target: T3, non-reduced CFHR2
T3 construct: also called CFHR2 (NON-REDUCED)
T3 chain: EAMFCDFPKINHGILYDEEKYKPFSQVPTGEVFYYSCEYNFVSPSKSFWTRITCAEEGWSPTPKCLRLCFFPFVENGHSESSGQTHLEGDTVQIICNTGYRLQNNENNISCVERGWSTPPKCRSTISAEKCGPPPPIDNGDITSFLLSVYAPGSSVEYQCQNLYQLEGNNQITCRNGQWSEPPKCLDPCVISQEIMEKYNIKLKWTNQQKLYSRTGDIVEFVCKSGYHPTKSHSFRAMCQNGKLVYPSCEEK

non-reduced CFHR1 = target: T4, non-reduced CFHR1
T4 construct: also called CFHR1 (NON-REDUCED)
T4 chain: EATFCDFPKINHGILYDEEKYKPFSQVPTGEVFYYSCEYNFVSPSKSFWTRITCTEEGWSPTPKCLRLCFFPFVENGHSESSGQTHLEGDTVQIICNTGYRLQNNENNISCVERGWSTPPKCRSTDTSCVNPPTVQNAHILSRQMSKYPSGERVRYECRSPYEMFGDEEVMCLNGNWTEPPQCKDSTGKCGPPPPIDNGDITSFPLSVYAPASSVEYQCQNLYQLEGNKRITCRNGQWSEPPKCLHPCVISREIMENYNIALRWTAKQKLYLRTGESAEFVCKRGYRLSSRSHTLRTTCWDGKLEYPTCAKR

non-reduced CFHR4 = target: T5, non-reduced CFHR4
T5 construct: not reduced; also called CFHR4 (NON-REDUCED)

non-reduced CFH = target: T6, non-reduced CFH
T6 construct: also called CFH (NON-REDUCED)
T6 chain: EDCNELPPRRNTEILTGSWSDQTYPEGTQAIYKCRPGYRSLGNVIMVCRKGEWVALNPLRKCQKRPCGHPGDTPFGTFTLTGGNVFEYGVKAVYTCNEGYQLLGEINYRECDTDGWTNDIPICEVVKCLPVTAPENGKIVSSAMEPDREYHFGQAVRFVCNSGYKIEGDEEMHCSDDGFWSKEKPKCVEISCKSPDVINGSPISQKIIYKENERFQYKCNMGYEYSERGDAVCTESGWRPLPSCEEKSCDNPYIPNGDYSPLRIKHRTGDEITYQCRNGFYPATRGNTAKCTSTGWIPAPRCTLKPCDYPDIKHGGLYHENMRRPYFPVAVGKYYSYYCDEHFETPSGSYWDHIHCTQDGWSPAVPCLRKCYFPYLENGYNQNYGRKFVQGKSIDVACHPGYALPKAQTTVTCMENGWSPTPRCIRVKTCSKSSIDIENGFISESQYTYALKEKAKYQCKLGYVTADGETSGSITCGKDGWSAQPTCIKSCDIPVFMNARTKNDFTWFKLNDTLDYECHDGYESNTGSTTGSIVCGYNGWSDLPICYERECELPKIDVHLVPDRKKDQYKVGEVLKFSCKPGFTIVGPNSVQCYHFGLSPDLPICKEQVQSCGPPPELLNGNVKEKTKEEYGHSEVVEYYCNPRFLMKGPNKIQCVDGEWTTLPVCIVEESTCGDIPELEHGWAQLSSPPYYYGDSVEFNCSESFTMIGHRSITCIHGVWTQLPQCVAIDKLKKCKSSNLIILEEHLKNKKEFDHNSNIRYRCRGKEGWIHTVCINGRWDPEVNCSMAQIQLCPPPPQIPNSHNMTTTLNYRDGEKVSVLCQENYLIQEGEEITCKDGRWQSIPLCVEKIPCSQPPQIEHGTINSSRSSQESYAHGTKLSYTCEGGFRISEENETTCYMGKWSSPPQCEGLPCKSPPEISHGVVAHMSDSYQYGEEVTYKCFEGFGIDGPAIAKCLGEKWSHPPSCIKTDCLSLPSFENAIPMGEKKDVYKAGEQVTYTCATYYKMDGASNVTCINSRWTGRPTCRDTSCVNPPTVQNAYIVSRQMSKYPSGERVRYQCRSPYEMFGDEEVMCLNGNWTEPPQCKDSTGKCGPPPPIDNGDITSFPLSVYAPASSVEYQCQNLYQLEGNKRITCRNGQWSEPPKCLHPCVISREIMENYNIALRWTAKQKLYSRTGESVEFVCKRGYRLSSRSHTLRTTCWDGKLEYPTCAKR

binding result (non-reduced CFHR3): no binding (tested: 1 ug/ml)
fold change vs isotype at 1 ug/ml (non-reduced CFHR3): 0.9 fold
binding result (non-reduced CFHR5): no binding (tested: 1 ug/ml)
fold change vs isotype at 1 ug/ml (non-reduced CFHR5): 0.9 fold
fold change vs isotype at 1 ug/ml (non-reduced CFHR2): 4.3 fold
fold change vs isotype at 1 ug/ml (non-reduced CFHR1): 10.7 fold
fold change vs isotype at 1 ug/ml (non-reduced CFHR4): 0.9 fold
fold change vs isotype at 1 ug/ml (non-reduced CFH): 7.3 fold
B1: ATL4717 (antibody, human IgG1, kappa, V domains shown)
VH: QVQLVESGGGMVQPGRSLRLSCAASGFTFSIYGMHWVRQAPGRGLEWVAVMSFDGKTKYYADSVKGRFTISRDNSKNTLYLQMNSLRRVDTAVYYCAKGGATAAVFDSWGQGTLVTVSS
VL: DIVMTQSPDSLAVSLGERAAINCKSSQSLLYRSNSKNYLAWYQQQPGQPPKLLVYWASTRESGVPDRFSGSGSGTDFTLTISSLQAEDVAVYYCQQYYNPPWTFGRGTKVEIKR
notes: Human IgG1; also called ATL0004717; ATL04717

binding result (non-reduced CFHR3): no binding (tested: 1 ug/ml)
fold change vs isotype at 1 ug/ml (non-reduced CFHR3): 1 fold
binding result (non-reduced CFHR5): no binding (tested: 1 ug/ml)
fold change vs isotype at 1 ug/ml (non-reduced CFHR5): 1 fold
fold change vs isotype at 1 ug/ml (non-reduced CFHR2): 1.3 fold
fold change vs isotype at 1 ug/ml (non-reduced CFHR1): 8.4 fold
fold change vs isotype at 1 ug/ml (non-reduced CFHR4): 0.9 fold
fold change vs isotype at 1 ug/ml (non-reduced CFH): 10 fold
B2: ATL5170 (antibody, human IgG1, kappa, V domains shown)
VH: B1 VH with M11V, I31N, R43K, M51T, R88A, V89E, F106L
VL: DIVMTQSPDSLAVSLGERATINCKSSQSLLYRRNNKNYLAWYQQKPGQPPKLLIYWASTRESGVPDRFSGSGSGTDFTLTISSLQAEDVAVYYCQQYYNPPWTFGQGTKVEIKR
notes: IgG1; also called ATL_0005170
